Numbering of substitutions follows the chain as printed.
T1: mouse IL-17F (mouse, UniProt Q7TNI7 29-161)
T1 sequence (looked up): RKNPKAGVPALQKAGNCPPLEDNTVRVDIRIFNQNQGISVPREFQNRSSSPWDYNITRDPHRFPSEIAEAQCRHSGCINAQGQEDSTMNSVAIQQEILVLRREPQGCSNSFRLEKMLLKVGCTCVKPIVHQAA

T2: rat IL-17F (rat, UniProt Q5BJ95 29-161)
T2 sequence (looked up): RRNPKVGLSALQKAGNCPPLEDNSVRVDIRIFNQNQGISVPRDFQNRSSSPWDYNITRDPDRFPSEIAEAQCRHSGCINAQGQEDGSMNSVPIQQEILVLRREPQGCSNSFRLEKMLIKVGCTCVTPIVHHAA

T3: human IL-17F (human, UniProt Q96PD4 31-163, biotinylated with Sulfo-NHS-LC-Biotin in the AlphaScreen assays only)
T3 construct: also called hIL-17F; recombinant human IL-17F
T3 sequence: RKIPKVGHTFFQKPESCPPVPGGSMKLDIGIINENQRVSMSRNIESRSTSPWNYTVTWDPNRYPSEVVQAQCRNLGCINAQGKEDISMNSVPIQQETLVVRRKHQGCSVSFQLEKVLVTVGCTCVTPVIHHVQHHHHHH

T4: marmoset IL-17A (marmoset, IL-17A is a disulfide-linked homodimer. One chain is given.)
T4 chain: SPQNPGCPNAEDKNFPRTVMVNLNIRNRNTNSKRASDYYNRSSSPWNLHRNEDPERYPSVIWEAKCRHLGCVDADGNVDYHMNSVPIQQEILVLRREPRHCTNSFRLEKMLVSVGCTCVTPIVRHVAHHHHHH

B1: 09G10 (VHH)
VHH: EVQLVESGGGLVQAGGSLRLSCAASDSVFTAKAVGWYRQPPGLQREWVAIITSGGKTNYADSSVKGRFTVSVDKVKNTVTLQMNSLKPEDTAVYYCYAQWMGRDYWGQGTQVTVSS
notes: Class 2 Nanobody (anti-IL-17A and IL-17A/F); not shown: c-myc, His6 tag
B2: 11A06 (VHH)
VHH: EVQLVESGGGLVQPGESLRLSCKASGFSLDYYALGWFRQAPGKEREGISCITSSDASAYYTDSVKGRFTISRDNSKNTVYLQMNSLKTEDTAIYYCAAALLTCSSYYDAYTYWGQGTQVTVSS
notes: as for B1
B3: 04G01 (VHH)
VHH: EVQLVESGGGLVQAGGSQRLSCTASGTIVNIHVMGWYRQAPGKQRELVALIFSGGSADYADSVKGRFTISRDNAKNTVYLEMNSLKAEDTAVYYCAAEIGYYSGGTYYSSEAHWGQGTQVTVSS
notes: Class 2 Nanobody (anti-IL-17A and IL-17A/F); also called IL17MS04G01; not shown: c-myc, His6 tag
B4: 13E05 (VHH)
VHH: EVQLVESGGGKVQAGDSLTLSCVASGGTFSNYAAWFRQAPGKDRRELVVSIFRTGSITYTADSVKGRFTASRVNTKNTVYLQMNSLKPEDTAVYYCASAYNPGVGYDYWGQGTQVTVSS
notes: Class 4 Nanobody (cross-reactive: anti-IL-17A, IL-17F and IL-17A/F); not shown: c-myc, His6 tag
B5: 02A08 (VHH)
VHH: EVQLVESGGGVVQPGGSLRLSCADSERSFSFNAMGWFRQAPGKEREFVAAISATGDDTYYADSVKGRFAISRDTARNTVYLQMNSLKPEDTAVYYCGARVNFDGTVSYTNDYAYWGQGTQVTVSS
notes: as for B1
B6: 11C08 (VHH)
VHH: EVQLVESGGGLVQAGGSLRLSCAASGVIFRLNAMGWYRAAPGKQRELVAIIVNGGSTNYADSVKGRFTISRDSAKNAVYLQMNSLKPEDTAVYYCYYNIPGDVYWGQGTQVTVSS
notes: as for B4
B7: 01A01 (VHH)
VHH: EVQLVESGGGLVQAGGSLRLSCAASGFTFDDYDIGWFRQAPGKEREGVSCFTSSDGRTFYADSVKGRFTVSADNAKNTVYLQMNSLEPEDTAVYFCAAVNTFDESAYAAFACYDVVRWGQGTQVTVSS
notes: as for B4
B8: 03C07 (VHH)
VHH: EVQLVESGGGLVQAGGSLRLSCAASGFTFDDYAIGWFRQAPGKEREAVSCFSSSDGSIYYADSVKGRFTISSDNAKNTVYLQMNSLKPEDTAVYYCAGGGGSYYYTQLNYCYDMDYWGKGTQVTVSS
notes: as for B1
B9: 13B05 (VHH)
VHH: EVQLVESGGRLVQAGGSLRLSCAASGRTFTSYPMGWFRQAPGKEREFVAAISMSGDDTAYTDFVRGRFTISRDDARNTVYLHMTSLKPEDTAVYYCAARTSYDGTYDYIDDYSYWGQGTQVTVSS
notes: as for B4
B10: 06E11 (VHH)
VHH: EVQLVESGGGLVQAGGSLRLSCPVSGRAFSRGRLGWFRQAPGKEREFVAVAHWSGAITSYADSVKGRFTFSRDNAKNTMNLQMNSLKPEDTAVYYCAADSETSGNWVYWGQGTQVTVSS
notes: Class 3
B11: 24B08 (VHH)
VHH: EVQLVESGGGLVQAGGSLRLSCAVSGGTFSTYKMGWFRQAPGKEREIVARISTNGPTAYAEFVKGRFTVSRENTKNTVYLQMNSLNIEDTAVYYCAAGYDSLFAGYDYWGQGTQVTVSS
notes: Class 3
B12: 07B09 (VHH)
VHH: EVQLVESGGGLVQAGGSLRLSCGASGGTFSSYATGWFRQAPGKEREFVAVLRWSDGHTAYADSVKGRFTISRDGAKNTMYLQMSSLKPEDTAIYYCTTATRPGEWDYWGQGTQVTVSS
notes: Class 3
B13: 24G10 (VHH)
VHH: B12 VHH with S25A, L51F, G56S, M79L
notes: Class 3
B14: 08H01 (VHH)
VHH: B12 VHH with G56S, K65E, M79V, A99G, D106H
notes: Class 3
B15: 07B11 (VHH)
VHH: EVQLVESGGGLVQAGGSLRLSCVASGRAFSSYVMGWFRQAPGMEREFVALIRWSDGITGYVDSVKGRFTISRDNAKNTVYLQMNSLKPEDTAVYYCAAAVRPGDYDYWGQGTQVTVSS
notes: Class 3
B16: 04B09 (VHH)
VHH: EVQLVESGGGLVQPGGSLRLSCAASGFTLGYYAIGWFRQAPGKEREGVSCDSSSDGDTYYANSVKGRFTISTDNGKNTVYLQMNSLKPEDTAVYYCATCTDWNYDYWGQGTQVTVSS
notes: as for B1

The binders below were run against T5, human IL-17A/F heterodimer (human, UniProt Q16552 24-155; Q96PD4 31-163, limits assumed, biotinylated with Sulfo-NHS-LC-Biotin in the AlphaScreen assays only) (assay: AlphaScreen competition, hIL-17A/F - IL-17RC-Fc).
T5 construct: also called hIL-17A/F
T5 sequence (Q16552 24-155 limits assumed, chain 1 of 2, one chain of several): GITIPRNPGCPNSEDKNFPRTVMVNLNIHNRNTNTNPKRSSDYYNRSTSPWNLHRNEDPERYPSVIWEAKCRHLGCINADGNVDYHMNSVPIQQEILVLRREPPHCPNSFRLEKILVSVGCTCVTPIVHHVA
Procedure: (§1) To this mixture, the IL-17RA or IL-17RC Fc-fusions, Acceptor beads and the streptavidin Donor beads were added and further incubated for 1 hour at RT.
B1 gave an IC50 of 120 pM. For B2, the IC50 was 39 pM. For B3, the IC50 was 39 pM.

These binders were tested against T6, human IL-17A (human, UniProt Q16552 24-155, biotinylated with Sulfo-NHS-LC-Biotin in the AlphaScreen assays only) (assay: AlphaScreen competition, hIL-17A - IL-17RC-Fc;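 note: Read-out after 1 h at room temperature with the receptor Fc-fusion, Acceptor beads and streptavidin-coated Donor beads present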).
T6 construct: also called hIL-17A; recombinant human IL-17A
T6 sequence (Q16552 other isoform, or with tags, fused parts or gaps): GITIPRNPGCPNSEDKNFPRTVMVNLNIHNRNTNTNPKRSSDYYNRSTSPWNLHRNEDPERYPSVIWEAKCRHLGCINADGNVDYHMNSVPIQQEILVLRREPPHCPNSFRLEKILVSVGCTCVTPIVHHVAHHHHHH
Procedure: as §1
B4 showed an IC50 of 1090 pM. In the case of B1, the IC50 is reported as 323 pM. Binder B5 has an IC50 of 419 pM. Binder B6 has an IC50 of 4800 pM. For B7, the IC50 was 211 pM. In the case of B2, the IC50 is reported as 461 pM. Binder B3 has an IC50 of 217 pM. For B8, the IC50 was 371 pM. For B9, the IC50 was 249 pM.

Each binder was assayed against T5, human IL-17A/F heterodimer (assay: SPR Biacore, hIL-17A/F on chip; purified protein).
B1 was tested, and the koff was 0.00013 s⁻¹. With B2 the koff was 3.8e-05 s⁻¹. B3 gave a koff of 0.00023 s⁻¹.

Each binder was assayed against T6, human IL-17A (assay: AlphaScreen competition, hIL-17A - IL-17RA-Fc;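 note: receptor Fc-fusion plus Acceptor and streptavidin Donor beads incubated with the mixture for 1 h at room temperature before reading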).
Procedure: as §1
With B4 the IC50 was 159 pM. B1 gave an IC50 of 46 pM. B5 was tested, and the IC50 was 126 pM. In the case of B6, the IC50 is reported as 2120 pM. B7 was tested, and the IC50 was 51 pM. In the case of B2, the IC50 is reported as 81 pM. Work on B3 yielded an IC50 of 14 pM. B8 gave an IC50 of 84 pM. In the case of B9, the IC50 is reported as 118 pM.

Each binder was assayed against T1, mouse IL-17F (assay: ELISA, coated IL-17F;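 note: binding ELISA on coated antigen from various species, with bound Nanobodies revealed by an HRP-linked anti-myc antibody and esTMB substrate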).
Procedure: (§2) Binding of a selected panel of anti-IL-17 Nanobodies to IL-17 of other species was assessed using a binding ELISA. […] HRP (horseradish peroxidase) conjugated anti-myc (Serotec, MCA 2200P) was used for detection using esTMB as substrate.
B10 was tested, and the OD was 0.0215 OD. With B11 the OD was -0.0015 OD. With B12 the OD was -0.0015 OD. In the case of B13, the OD is reported as -0.0005 OD. For B14, the OD was -0.0005 OD. With B15 the OD was -0.0005 OD.

These binders were tested against T2, rat IL-17F (assay: ELISA, coated IL-17F;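 note: binding ELISA on coated antigen from various species, with bound Nanobodies revealed by an HRP-linked anti-myc antibody and esTMB substrate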).
Procedure: as §2
Work on B10 yielded an OD of 0.0085 OD. B11 was tested, and the OD was 0.0035 OD. B12 showed an OD of 0.0025 OD. B13 was tested, and the OD was 0.0025 OD. In the case of B14, the OD is reported as 0.0045 OD. B15 showed an OD of -0.0105 OD.

What follows are binders tested against T5, human IL-17A/F heterodimer (assay: AlphaScreen competition, hIL-17A/F - IL-17RA-Fc).
Procedure: as §1
In the case of B1, the IC50 is reported as 101 pM. B2 was tested, and the IC50 was 140 pM. B3 showed an IC50 of 67 pM.

These binders were tested against T6, human IL-17A (assay: cell-based or functional assay).
For B4, the “IL-17A-induced IL-6 production in HT-1080 cells, Emax” value (shortened to “IL-17A-induced IL-6 production … Emax”) was 101% and the “IL-17A-induced IL-6 production in HT-1080 cells, IC50” value (“IL-17A-induced IL-6 production … IC50” for short) was 12300 pM. In the case of B1, the “IL-17A-induced IL-6 production … Emax” value is reported as 99% and the “IL-17A-induced IL-6 production … IC50” value is reported as 4000 pM. For B5, the “IL-17A-induced IL-6 production … Emax” value was 103% and the “IL-17A-induced IL-6 production … IC50” value was 8800 pM. In the case of B6, the “IL-17A-induced IL-6 production … Emax” value is reported as 73% and the “IL-17A-induced IL-6 production … IC50” value is reported as 130000 pM. In the case of B7, the “IL-17A-induced IL-6 production … Emax” value is reported as 104% and the “IL-17A-induced IL-6 production … IC50” value is reported as 2700 pM. In the case of B2, the “IL-17A-induced IL-6 production … Emax” value is reported as 98.5% and the “IL-17A-induced IL-6 production … IC50” value is reported as 4000 pM. B3 was tested, and the “IL-17A-induced IL-6 production … Emax” value was 113% and the “IL-17A-induced IL-6 production … IC50” value was 5400 pM. For B8, the “IL-17A-induced IL-6 production … Emax” value was 101% and the “IL-17A-induced IL-6 production … IC50” value was 4200 pM. With B9 the “IL-17A-induced IL-6 production … Emax” value was 104% and the “IL-17A-induced IL-6 production … IC50” value was 14000 pM.

The binders below were run against T3, human IL-17F (assay: SPR Biacore, hIL-17F on chip; periplasmic extract (*); NB = no binding).
B16: no binding. B1: no binding. B3: no binding.

Biological target: T4, marmoset IL-17A
Experiment: ELISA, coated IL-17A
Procedure: as §2
In the case of B11, the OD is reported as 0.129 OD. B12 gave an OD of 0.005 OD.

These binders were tested against T7, human IL-17A (human, UniProt Q16552 24-155) (assay: ELISA, coated IL-17A).
T7 construct: secreted form (GenBank U32659) expressed in Hek293 with C-terminal 6-His; also called hIL-17A; IL-17A-6HIS
T7 sequence (Q16552 other isoform, or with tags, fused parts or gaps): as above
Procedure: as §2
For B11, the OD was 0.103 OD. In the case of B12, the OD is reported as 0.005 OD. In the case of B13, the OD is reported as 0.009 OD. With B15 the OD was 0.03 OD.

What follows are binders tested against guinea pig IL-17A (guinea pig) (assay: ELISA, coated IL-17A).
Procedure: as §2
B10 gave an OD of 0.006 OD. For B11, the OD was 0.012 OD. B12 showed an OD of 0.009 OD. With B13 the OD was 0.008 OD. Binder B14 has an OD of 0.007 OD. B15 gave an OD of 0.007 OD.

The binders below were run against T6, human IL-17A (assay: SPR Biacore, hIL-17A on chip; purified protein).
In the case of B4, the koff is reported as 0.0016 s⁻¹. In the case of B1, the koff is reported as 0.00012 s⁻¹. For B5, the koff was 0.00042 s⁻¹. In the case of B6, the koff is reported as 0.0079 s⁻¹. B7 was tested, and the koff was 8.5e-05 s⁻¹. For B2, the koff was 0.00016 s⁻¹. For B3, the koff was 0.00018 s⁻¹. Work on B8 yielded a koff of 0.0002 s⁻¹. B9 gave a koff of 0.0003 s⁻¹.

These binders were tested against T5, human IL-17A/F heterodimer (assay: cell-based or functional assay).
B1 was tested, and the “IL-17A/F-induced IL-6 production in HT-1080 cells, Emax” value was 108% and the “IL-17A/F-induced IL-6 production in HT-1080 cells, IC50” value was 22200 pM. B2 was tested, and the “IL-17A/F-induced IL-6 production in HT-1080 cells, Emax” value was 106% and the “IL-17A/F-induced IL-6 production in HT-1080 cells, IC50” value was 28100 pM. B3 was tested, and the “IL-17A/F-induced IL-6 production in HT-1080 cells, Emax” value was 104% and the “IL-17A/F-induced IL-6 production in HT-1080 cells, IC50” value was 34700 pM.

From patent US20210130452A1 (Merck KGaA, published 2021)
